B1: Splicing factor 45 (Homo sapiens), Q96I25 (parent)
chain: MSLYDDLGVETSDSKTEGWSKNFKLLQSQLQVKKAALTQAKSQRTKQSTVLAPVIDLKRGGSSDDRQIVDTPPHVAAGLKDPVPSGFSAGEVLIPLADEYDPMFPNDYEKVVKRQREERQRQRELERQKEIEEREKRRKDRHEASGFARRPDPDSDEDEDYERERRKRSMGGAAIAPPTSLVEKDKELPRDFPYEEDSRPRSQSSKAAIPPPVYEEQDRPRSPTGPSNSFLANMGGTVAHKIMQKYGFREGQGLGKHEQGLSTALSVEKTSKRGGKIIVGDATEKDASKKSDSNPLTEILKCPTKVVLLRNMVGAGEVDEDLEVETKEECEKYGKVGKCVIFEIPGAPDDEAVRIFLEFERVESAIKAVVDLNGRYFGGRVVKACFYNLDKFRVLDLAEQV
B2: Splicing factor 45 (Homo sapiens), Q96I25 (parent)
chain: B1 chain
partner: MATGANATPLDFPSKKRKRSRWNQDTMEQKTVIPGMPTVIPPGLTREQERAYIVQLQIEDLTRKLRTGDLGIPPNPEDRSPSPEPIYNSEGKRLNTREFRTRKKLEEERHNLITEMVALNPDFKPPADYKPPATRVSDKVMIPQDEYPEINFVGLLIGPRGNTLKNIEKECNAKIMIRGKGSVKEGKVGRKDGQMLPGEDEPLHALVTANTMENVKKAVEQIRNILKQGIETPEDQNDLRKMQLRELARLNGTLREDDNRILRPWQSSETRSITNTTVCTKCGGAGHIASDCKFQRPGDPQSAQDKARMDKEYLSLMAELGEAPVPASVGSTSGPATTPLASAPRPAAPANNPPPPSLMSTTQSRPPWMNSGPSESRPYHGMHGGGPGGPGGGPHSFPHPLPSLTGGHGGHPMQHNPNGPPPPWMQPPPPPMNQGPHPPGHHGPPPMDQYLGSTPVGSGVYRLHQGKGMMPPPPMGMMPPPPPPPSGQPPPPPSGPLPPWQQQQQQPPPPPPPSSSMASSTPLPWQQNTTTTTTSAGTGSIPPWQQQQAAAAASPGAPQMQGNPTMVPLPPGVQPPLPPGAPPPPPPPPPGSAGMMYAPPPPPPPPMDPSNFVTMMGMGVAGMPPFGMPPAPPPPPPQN

Variants of: B1
Conditions: with SF3B1, O75533-1
SF3B1, O75533-1, sequence (O75533 whole entry): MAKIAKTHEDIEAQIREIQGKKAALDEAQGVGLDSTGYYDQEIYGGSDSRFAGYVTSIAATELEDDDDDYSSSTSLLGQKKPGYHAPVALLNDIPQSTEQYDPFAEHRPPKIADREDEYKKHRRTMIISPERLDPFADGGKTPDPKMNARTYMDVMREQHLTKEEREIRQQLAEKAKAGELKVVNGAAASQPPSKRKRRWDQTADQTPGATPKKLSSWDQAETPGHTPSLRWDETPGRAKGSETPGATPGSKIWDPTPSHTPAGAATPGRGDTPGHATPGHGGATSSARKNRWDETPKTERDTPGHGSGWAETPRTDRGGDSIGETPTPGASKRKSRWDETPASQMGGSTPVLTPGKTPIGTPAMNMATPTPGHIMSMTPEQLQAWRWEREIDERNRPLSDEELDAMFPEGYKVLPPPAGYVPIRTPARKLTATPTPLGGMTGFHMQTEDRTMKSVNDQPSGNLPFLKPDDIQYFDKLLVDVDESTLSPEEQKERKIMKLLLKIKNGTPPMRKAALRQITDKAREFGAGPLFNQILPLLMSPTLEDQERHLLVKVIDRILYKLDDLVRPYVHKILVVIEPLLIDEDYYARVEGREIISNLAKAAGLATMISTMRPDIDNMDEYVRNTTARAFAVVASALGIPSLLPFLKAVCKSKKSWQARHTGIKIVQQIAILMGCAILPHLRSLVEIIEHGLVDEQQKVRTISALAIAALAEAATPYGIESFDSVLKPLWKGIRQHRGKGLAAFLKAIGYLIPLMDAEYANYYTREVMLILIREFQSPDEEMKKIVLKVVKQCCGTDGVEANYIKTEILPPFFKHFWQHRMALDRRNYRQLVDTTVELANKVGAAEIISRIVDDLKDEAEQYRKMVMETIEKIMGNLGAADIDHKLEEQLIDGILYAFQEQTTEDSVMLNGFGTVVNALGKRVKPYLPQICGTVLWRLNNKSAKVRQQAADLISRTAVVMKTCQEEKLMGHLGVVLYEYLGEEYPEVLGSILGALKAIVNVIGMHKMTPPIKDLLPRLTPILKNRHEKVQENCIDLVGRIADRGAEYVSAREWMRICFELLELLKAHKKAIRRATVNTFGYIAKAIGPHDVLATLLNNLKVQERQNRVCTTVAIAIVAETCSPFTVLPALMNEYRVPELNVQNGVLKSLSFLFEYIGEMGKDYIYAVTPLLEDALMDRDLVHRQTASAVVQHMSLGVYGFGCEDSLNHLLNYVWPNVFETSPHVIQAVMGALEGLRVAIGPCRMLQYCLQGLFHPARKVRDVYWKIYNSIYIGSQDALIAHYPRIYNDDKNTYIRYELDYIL

Variant | effect of a mutation on the interaction
F377A | disrupting interaction
Y376A | disrupting interaction

Variants of: B1
Conditions: with U2AF2, P26368
U2AF2, P26368, sequence (P26368 whole entry): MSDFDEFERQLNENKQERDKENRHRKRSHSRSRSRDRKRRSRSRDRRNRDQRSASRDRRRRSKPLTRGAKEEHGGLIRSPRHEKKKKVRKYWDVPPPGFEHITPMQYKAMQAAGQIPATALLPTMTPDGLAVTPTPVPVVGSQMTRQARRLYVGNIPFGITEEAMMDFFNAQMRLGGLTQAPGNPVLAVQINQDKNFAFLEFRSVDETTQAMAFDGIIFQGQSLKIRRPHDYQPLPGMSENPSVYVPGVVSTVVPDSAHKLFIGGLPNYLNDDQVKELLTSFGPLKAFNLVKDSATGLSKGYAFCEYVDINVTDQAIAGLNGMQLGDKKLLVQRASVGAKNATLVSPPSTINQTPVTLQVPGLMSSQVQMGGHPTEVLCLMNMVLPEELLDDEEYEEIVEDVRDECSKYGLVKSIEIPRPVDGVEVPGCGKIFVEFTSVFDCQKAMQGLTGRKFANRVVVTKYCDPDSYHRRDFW

Variant | effect of a mutation on the interaction
F377A | decreasing interaction
R375D | disrupting interaction

Variants of: B2
Conditions: with sf01_human SF1, Q15637

Variant | effect of a mutation on the interaction
R375D | disrupting interaction
R375A | decreasing interaction
Y376A | decreasing interaction
D319A | disrupting interaction
D319K | disrupting interaction
F377Y | decreasing interaction
F377A | decreasing interaction

— IntAct's records for PubMed 17589525
